Laboratory results taken from publication doi:10.64898/2025.12.12.693948.

Tests used:
[1] = target: FLAG-tagged AnkG UPA-DD domains without the E35a-encoded peptide (mouse); experiment: co-IP; N2a cells 48 h after transfection with FLAG-UPA-DD minigene plasmids with or without E35a; Pierce IP lysis buffer; anti-FLAG M2 antibody on Protein G magnetic beads; immunoblot with anti-IP3R1
[2] = target: ankyrin-G (AnkG) lacking the E35a-encoded peptide, endogenous, Ank3 E35a-/- mouse cerebellum (mouse (endogenous in cerebellum)) (UniProt G5E8K5); experiment: co-IP; mouse cerebellum whole tissue lysate (500 μg total protein; WT or Ank3 E35a-/-); anti-AnkG antibody (Santa Cruz sc-12719) on Protein G magnetic beads, overnight at 4°C; washed with NT2 buffer; immunoblot with anti-IP3R1 or anti-Na-K ATPase; normalised to the AnkG 190 kDa isoform

FLAG-tagged AnkG UPA-DD domains without the E35a-encoded peptide (mouse), sequence (G5E8K5 whole entry, the tested form may be a part, canonical isoform): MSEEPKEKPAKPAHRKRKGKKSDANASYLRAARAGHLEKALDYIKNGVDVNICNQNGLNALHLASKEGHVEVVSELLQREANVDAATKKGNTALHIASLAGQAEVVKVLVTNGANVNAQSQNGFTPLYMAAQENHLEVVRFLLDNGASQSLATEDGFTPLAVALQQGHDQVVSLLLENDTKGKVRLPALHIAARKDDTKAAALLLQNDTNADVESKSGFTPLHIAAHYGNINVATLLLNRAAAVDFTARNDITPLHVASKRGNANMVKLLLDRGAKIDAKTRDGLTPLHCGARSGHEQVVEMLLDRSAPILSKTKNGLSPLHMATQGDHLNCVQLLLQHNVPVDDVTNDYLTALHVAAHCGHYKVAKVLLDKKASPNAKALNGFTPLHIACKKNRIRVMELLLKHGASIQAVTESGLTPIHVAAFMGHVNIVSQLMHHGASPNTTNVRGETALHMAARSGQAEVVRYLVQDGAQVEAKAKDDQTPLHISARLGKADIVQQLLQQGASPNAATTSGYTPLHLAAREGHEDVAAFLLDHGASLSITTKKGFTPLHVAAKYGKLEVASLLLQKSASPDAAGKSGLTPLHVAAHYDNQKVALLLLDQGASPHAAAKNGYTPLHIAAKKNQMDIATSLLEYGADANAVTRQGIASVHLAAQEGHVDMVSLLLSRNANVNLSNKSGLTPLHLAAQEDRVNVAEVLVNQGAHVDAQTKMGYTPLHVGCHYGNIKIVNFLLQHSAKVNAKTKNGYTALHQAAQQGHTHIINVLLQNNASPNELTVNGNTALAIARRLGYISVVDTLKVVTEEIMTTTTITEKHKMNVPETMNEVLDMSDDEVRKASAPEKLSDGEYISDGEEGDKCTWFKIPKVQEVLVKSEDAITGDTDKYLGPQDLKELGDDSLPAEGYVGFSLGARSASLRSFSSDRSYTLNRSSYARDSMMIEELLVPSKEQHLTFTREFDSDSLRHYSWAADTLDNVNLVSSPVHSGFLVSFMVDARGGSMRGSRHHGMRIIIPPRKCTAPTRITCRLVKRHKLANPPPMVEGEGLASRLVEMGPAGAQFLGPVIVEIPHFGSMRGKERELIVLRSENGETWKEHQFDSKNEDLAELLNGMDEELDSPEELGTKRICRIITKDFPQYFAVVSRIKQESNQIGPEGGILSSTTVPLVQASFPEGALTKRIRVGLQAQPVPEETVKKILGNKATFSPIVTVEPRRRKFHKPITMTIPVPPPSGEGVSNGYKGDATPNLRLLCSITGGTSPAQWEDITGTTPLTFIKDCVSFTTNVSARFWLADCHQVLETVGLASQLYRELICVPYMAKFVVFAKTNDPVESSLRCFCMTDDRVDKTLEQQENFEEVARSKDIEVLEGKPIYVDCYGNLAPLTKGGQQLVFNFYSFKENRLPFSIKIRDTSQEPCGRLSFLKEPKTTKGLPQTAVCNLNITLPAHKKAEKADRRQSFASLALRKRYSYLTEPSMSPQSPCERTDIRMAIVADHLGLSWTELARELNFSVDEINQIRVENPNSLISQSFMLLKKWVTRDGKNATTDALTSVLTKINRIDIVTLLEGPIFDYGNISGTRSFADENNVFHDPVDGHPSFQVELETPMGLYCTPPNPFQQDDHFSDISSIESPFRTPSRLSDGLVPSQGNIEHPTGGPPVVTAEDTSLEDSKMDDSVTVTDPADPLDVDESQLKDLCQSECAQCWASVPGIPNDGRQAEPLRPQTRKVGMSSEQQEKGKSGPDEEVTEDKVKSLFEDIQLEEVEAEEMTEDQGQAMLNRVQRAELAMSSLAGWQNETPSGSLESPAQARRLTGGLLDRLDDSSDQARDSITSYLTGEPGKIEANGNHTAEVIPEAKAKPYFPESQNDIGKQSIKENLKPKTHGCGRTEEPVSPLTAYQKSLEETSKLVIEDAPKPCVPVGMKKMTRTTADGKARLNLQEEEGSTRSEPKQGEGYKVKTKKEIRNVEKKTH

Substance | percent of InsP3R1 pulled down relative to UPA-DD with E35a [1] | percent reduction of co-precipitated InsP3R1 against WT [2]
type 1 inositol trisphosphate receptor (InsP3R1), endogenous, N2a cells (from UniProt P11881 1-2749) (natural protein) | 30% | 
type 1 inositol trisphosphate receptor (InsP3R1), endogenous, mouse cerebellum (from UniProt P11881 1-2749) (natural protein) |  | 77%
